Measurements reported in publication PMC9637222 (2022).

Experiments:
Experiment in all cases: ITC
[1] = biological target: T1, InvF (tag-free, purified) (S. Typhimurium, UniProt P69343 1-216)
T1 chain: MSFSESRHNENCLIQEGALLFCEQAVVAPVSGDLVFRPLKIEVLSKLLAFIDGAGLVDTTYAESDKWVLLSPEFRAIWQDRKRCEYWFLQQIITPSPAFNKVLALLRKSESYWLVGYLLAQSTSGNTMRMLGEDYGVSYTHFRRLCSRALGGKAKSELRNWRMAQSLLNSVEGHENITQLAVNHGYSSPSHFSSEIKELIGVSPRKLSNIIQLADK

[2] = biological target: T2, SipB (tag-free, purified) (S. Typhimurium, UniProt Q56019 1-593)
T2 chain: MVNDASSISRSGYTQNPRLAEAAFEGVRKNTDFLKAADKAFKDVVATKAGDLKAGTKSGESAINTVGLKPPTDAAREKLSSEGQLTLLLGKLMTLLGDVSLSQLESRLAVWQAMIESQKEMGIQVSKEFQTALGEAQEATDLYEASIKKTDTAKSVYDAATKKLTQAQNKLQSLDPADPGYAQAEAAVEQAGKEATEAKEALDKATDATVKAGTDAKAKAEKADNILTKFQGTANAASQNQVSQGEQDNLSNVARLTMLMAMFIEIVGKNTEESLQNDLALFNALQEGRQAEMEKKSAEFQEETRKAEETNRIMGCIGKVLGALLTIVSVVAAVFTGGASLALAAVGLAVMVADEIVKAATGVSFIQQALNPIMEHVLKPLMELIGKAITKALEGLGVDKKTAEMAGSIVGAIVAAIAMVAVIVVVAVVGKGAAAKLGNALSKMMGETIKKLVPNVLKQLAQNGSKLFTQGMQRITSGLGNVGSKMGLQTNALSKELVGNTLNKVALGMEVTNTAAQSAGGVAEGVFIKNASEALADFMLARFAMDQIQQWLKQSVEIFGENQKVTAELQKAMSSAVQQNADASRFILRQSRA

[3] = biological target: T3, SipC (tag-free, purified) (S. Typhimurium, UniProt P0CL47 1-409)
T3 chain: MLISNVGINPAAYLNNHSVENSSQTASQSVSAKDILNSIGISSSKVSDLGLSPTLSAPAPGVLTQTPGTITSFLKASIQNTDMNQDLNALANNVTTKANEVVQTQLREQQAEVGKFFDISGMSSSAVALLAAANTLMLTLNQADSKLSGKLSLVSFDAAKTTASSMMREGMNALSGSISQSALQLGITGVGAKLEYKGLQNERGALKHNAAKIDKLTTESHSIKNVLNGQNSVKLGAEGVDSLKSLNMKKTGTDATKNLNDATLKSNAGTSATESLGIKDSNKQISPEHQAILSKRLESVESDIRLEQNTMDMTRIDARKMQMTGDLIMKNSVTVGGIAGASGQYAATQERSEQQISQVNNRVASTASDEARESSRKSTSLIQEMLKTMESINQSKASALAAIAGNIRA

B1: SicA (tag-free, purified) (natural protein)
chain: MDYQNNVSEERVAEMIWDAVSEGATLKDVHGIPQDMMDGLYAHAYEFYNQGRLDEAETFFRFLCIYDFYNPDYTMGLAAVCQLKKQFQKACDLYAVAFTLLKNDYRPVFFTGQCQLLMRKAAKARQCFELVNERTEDESLRAKALVYLEALKTAETEQHSEQEKE
[1]
  Kd: 460 nM
[2]
  Kd: 530 nM
[3]
  Kd: 610 nM
